Results published in patent US10597674B2, “HPPD variants and methods of use” (BASF Agricultural Solutions Seed, US LLC, priority 2015, dated 2020).
Positions count from the first letter of the chain named. In names and notes the source's numbering stands.

B1: SEQ ID NO: 105: mutant HPPD polypeptide: R213K M264L P268G T270E E335P G336H N337S A340R S344Q I345M (protein)
chain: MADLYENPMGLMGFEFIEFASPTPGTLEPIFEIMGFTKVATHRSKNVHLYRQGEINLILNNEPNSIASYFAAEHGPSVCGMAFRVKDSQKAYNRALELGAQPIHIDTGPMELNLPAIKGIGGAPLYLIDRFGEGSSIYDIDFVYLEGVERNPVGAGLKVIDHLTHNVYRGRMVYWANFYEKLFNFREARYFDIKGEYTGLTSKAMSAPDGMIKIPLNEESSKGAGQIEEFLMQFNGEGIQHVAFLTDDLVKTWDALKKIGMRFLTAPGDEYYEMLEGRLPDHGEPVDQLQARGILLDGSSVEGDKRLLLQIFSETLMGPVFFEFIQRKGDDGFGPHSFKRLFEQMERDQVRRGVLTAD
modifications: mutant HPPD polypeptide
notes: mutant HPPD polypeptide: R213K M264L P268G T270E E335P G336H N337S A340R S344Q I345M
B2: SEQ ID NO: 8: mutant HPPD polypeptide: E335P G336D N337S A340V (protein)
chain: B1 chain with K213R, L264M, G268P, E270T, H336D, R340V, Q344S, M345I
modifications: mutant HPPD polypeptide
notes: mutant HPPD polypeptide: E335P G336D N337S A340V
B3: SEQ ID NO: 9: mutant HPPD polypeptide: E335P G336D N337S I345V (protein)
chain: B1 chain with K213R, L264M, G268P, E270T, H336D, R340A, Q344S, M345V
modifications: mutant HPPD polypeptide
notes: mutant HPPD polypeptide: E335P G336D N337S I345V
B4: SEQ ID NO: 34: mutant HPPD polypeptide: P268G T270E D330H E335P G336D N337S A340R I345K (protein)
chain: B1 chain with K213R, L264M, D330H, H336D, Q344S, M345K
modifications: mutant HPPD polypeptide
notes: mutant HPPD polypeptide: P268G T270E D330H E335P G336D N337S A340R I345K
B5: SEQ ID NO: 24: mutant HPPD polypeptide: E335P G336H N337S A340V I345V (protein)
chain: B1 chain with K213R, L264M, G268P, E270T, R340V, Q344S, M345V
modifications: mutant HPPD polypeptide
notes: mutant HPPD polypeptide: E335P G336H N337S A340V I345V
B6: SEQ ID NO: 42: mutant HPPD polypeptide: A204T P268G T270E E335P G336D N337S A340V I345V (protein)
chain: B1 chain with A204T, K213R, L264M, H336D, R340V, Q344S, M345V
modifications: mutant HPPD polypeptide
notes: mutant HPPD polypeptide: A204T P268G T270E E335P G336D N337S A340V I345V
B7: SEQ ID NO: 56: mutant HPPD polypeptide: P268G T270E E335P G336D N337S K339R A340V I345V (protein)
chain: B1 chain with K213R, L264M, H336D, K339R, R340V, Q344S, M345V
modifications: mutant HPPD polypeptide
notes: mutant HPPD polypeptide: P268G T270E E335P G336D N337S K339R A340V I345V
B8: SEQ ID NO: 21: mutant HPPD polypeptide: E335P G336H N337S (protein)
chain: B1 chain with K213R, L264M, G268P, E270T, R340A, Q344S, M345I
modifications: mutant HPPD polypeptide
notes: mutant HPPD polypeptide: E335P G336H N337S
B9: SEQ ID NO: 102: mutant HPPD polypeptide: M264L P268G (Table 2: R) T270E T315R E335P G336H N337S A340V S344Q I345M (protein)
chain: B1 chain with K213R, G268R, T315R, R340V
modifications: mutant HPPD polypeptide
B10: SEQ ID NO: 44: mutant HPPD polypeptide: R213L P268G T270E E335P G336D N337S A340V I345V (protein)
chain: B1 chain with K213L, L264M, H336D, R340V, Q344S, M345V
modifications: mutant HPPD polypeptide
notes: mutant HPPD polypeptide: R213L P268G T270E E335P G336D N337S A340V I345V
B11: SEQ ID NO: 45: mutant HPPD polypeptide: P268G T270E T315R E335P G336D N337S A340V I345V (protein)
chain: B1 chain with K213R, L264M, T315R, H336D, R340V, Q344S, M345V
modifications: mutant HPPD polypeptide
notes: mutant HPPD polypeptide: P268G T270E T315R E335P G336D N337S A340V I345V
B12: SEQ ID NO: 5: mutant HPPD polypeptide: E335P N337S (protein)
chain: B1 chain with K213R, L264M, G268P, E270T, H336G, R340A, Q344S, M345I
modifications: mutant HPPD polypeptide
notes: mutant HPPD polypeptide: E335P N337S
B13: SEQ ID NO: 54: mutant HPPD polypeptide: P268G T270E E335P G336D N337S K339A A340V I345V (protein)
chain: B1 chain with K213R, L264M, H336D, K339A, R340V, Q344S, M345V
modifications: mutant HPPD polypeptide
notes: mutant HPPD polypeptide: P268G T270E E335P G336D N337S K339A A340V I345V
B14: SEQ ID NO: 43: mutant HPPD polypeptide: R213K P268G T270E E335P G336D N337S A340V I345V (protein)
chain: B1 chain with L264M, H336D, R340V, Q344S, M345V
modifications: mutant HPPD polypeptide
notes: mutant HPPD polypeptide: R213K P268G T270E E335P G336D N337S A340V I345V

The molecules below were run on transgenic soybean T0 events (assay: Additional greenhouse trials of T0 soybean events, leaf damage score 0-100 as percentiles). Conditions: Cmpd. 1 300 g AI/ha, five days; 75th minus 25th percentile.
Type: in vivo
Text: In additional greenhouse trials, 21 to 94 independent T0 soybean events per construct containing an exemplary mutant HPPD polypeptide were sprayed with the HPPD inhibitor herbicide Cmpd. […] Five days after the application, the leaf damaged area due to the HPPD inhibitor herbicide is scored in a scale from 0 (no damage) to 100 (complete bleaching). Under those conditions, the wild-type plants were completely bleached and their damage scores were in the 95-100 range.
Table 9 presents the distribution of the HPPD inhibitor herbicide damage score data as percentile for exemplary mutant HPPD inhibitor herbicide tolerant polypeptides (SEQ ID NOs). The percentiles normalize ranks of the damage score from an individual plant in a population. […] The median is the 50th percentile. Half the values had higher damage scores; half had lower damage scores. […] The difference between the 75th and 25th percentile is called the interquartile range and a marker to quantify scattering in the population. All constructs had only one single cassette insertion in the soybean genome.
In Table 9, the constructs were ranked based on injury scores according to the 75th percentile, from smallest to highest score. All exemplary HPPD polypeptide variants are better in all percentile analyses than the prior art mutant HPPD polypeptide (WO2014/043435) corresponding to SEQ ID NO:2 in this invention. The scoring of the prior art mutant HPPD polypeptide (WO2014/043435) corresponding to SEQ ID NO:2 in this invention is listed in the bottom row of Table 9.

| Molecule | leaf damage score, Interquartile range |
| --- | --- |
| B1 | 10.0 |
| B2 | 6.3 |
| B3 | 5.0 |
| B4 | 10.0 |
| B5 | 10.0 |
| B6 | 10.0 |
| B7 | 10.0 |
| B8 | 15.0 |
| B9 | 12.0 |
| B10 | 11.3 |
| B11 | 21.3 |
| B12 | 10.0 |
| B13 | 10.0 |
| B14 | 10.0 |

Same assay, conditions: Cmpd. 1 300 g AI/ha, five days; scale 0 (no damage) to 100 (complete bleaching)

| Molecule | leaf damage score, 25th percentile |
| --- | --- |
| B1 | 5.0 |
| B2 | 10.0 |
| B3 | 10.0 |
| B4 | 10.0 |
| B5 | 10.0 |
| B6 | 10.0 |
| B7 | 10.0 |
| B8 | 10.0 |
| B9 | 8.0 |
| B10 | 10.0 |
| B11 | 5.0 |
| B12 | 10.0 |
| B13 | 10.0 |
| B14 | 10.0 |

Same assay, conditions: Cmpd. 1 300 g AI/ha, five days; scale 0-100

| Molecule | leaf damage score, 75th percentile | leaf damage score, 90th percentile | leaf damage score, Median |
| --- | --- | --- | --- |
| B1 | 15.0 | 70.0 | 10.0 |
| B2 | 16.3 | 38.5 | 10.0 |
| B3 | 15.0 | 19.0 | 10.0 |
| B4 | 20.0 | 70.0 | 15.0 |
| B5 | 20.0 | 35.0 | 10.0 |
| B6 | 20.0 | 75.0 | 15.0 |
| B7 | 20.0 | 65.0 | 15.0 |
| B8 | 25.0 | 35.0 | 15.0 |
| B9 | 20.0 | 45.0 | 10.0 |
| B10 | 21.3 | 70.0 | 15.0 |
| B11 | 26.3 | 67.5 | 15.0 |
| B12 | 20.0 | 72.0 | 15.0 |
| B13 | 20.0 | 62.5 | 10.0 |
| B14 | 20.0 | 67.0 | 15.0 |
